The nature of this series: protein stability index of a GFP-peptide fusion (GPS, HEK-293T) (PSI 1-6); higher = more stable. The conditions noted are these: c terminus: a fixed tail appended.

± gives the standard deviation.
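Also: 24-mer peptide tiles fused after GFP, lentivirally expressed, FACS-sorted into six equal bins by GFP/DsRed ratio, decoded by Illumina sequencing, PSI is the read-weighted mean bin number.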

For the sequence FCVALSDYDLVLAEDEEMNRMHES [GNAI1], the protein stability index is 3.52 ± 0.41 (treatment: DMSO) and 3.43 ± 0.28 (treatment: MLN4924 1 uM, 8 h).

With FSHSGRYIMTRDYLTVKVWDLNME [PPP2R2B], the protein stability index runs as follows: (treatment: DMSO) 2.63 ± 0.49; (treatment: MLN4924 1 uM, 8 h) 2.3 ± 0.38.

Take SSHEVKALGAMWKLHKSQLSQALN [TRIM9]: the protein stability index was 2.7 ± 0.41 (treatment: DMSO) and 2.58 ± 0.27 (treatment: MLN4924 1 uM, 8 h).

As to MEPAVSEPMRDQVARTHLTEDTPK [NSDHL], the protein stability index runs as follows: (treatment: DMSO) 5.57 ± 0.16; (treatment: MLN4924 1 uM, 8 h) 5.51 ± 0.22.

For the sequence EKPLGRVGVFLDFESGSVSFLNVT [TRIM43], the protein stability index reads like this: (treatment: DMSO) 2.28 ± 0.33; (treatment: MLN4924 1 uM, 8 h) 2.17 ± 0.55.

For the sequence CMFCNEEFLGNRSVILNHMAREHA [ZNF277], the protein stability index by setting is: (treatment: DMSO) 3.62 ± 0.38; (treatment: MLN4924 1 uM, 8 h) 3.52 ± 0.46.

KETDPLTFNFISSLKAICTEIANC [PLD5] registered a protein stability index (treatment: DMSO) of 2 ± 0.27 and a protein stability index (treatment: MLN4924 1 uM, 8 h) of 2.05 ± 0.1.

For the sequence AKSLSFRKGELVTASKAIIEKEYQ [ADD1], the protein stability index is, setting by setting: (treatment: DMSO) 3.71 ± 0.19; (treatment: MLN4924 1 uM, 8 h) 3.94 ± 0.45.

As to TRQLSLAVKDGLIVETLTVGCKGS [ZMYND11], the protein stability index is, setting by setting: (treatment: DMSO) 3.17 ± 0.15; (treatment: MLN4924 1 uM, 8 h) 3.49 ± 0.26.

Regarding FRSPSMPCSVIRPILKRLERPQDR [CDC25B], the protein stability index was 3.64 ± 0.19 (treatment: DMSO) and 3.56 ± 0.2 (treatment: MLN4924 1 uM, 8 h).

For LEEENKERAKREMVMYSITVAFWL [MFF], the protein stability index came out at 2.29 ± 0.55 (treatment: DMSO) and 2.82 ± 0.46 (treatment: MLN4924 1 uM, 8 h).

On to SGYAGELGFRAFSGSGNRLDGKKK [UFD1], for which the protein stability index reads like this: (treatment: DMSO) 4.89 ± 0.069; (treatment: MLN4924 1 uM, 8 h) 4.74 ± 0.26.

EQELKTVTYSLLKRLKERSLDTLL [SMAD6]: the protein stability index is 2.35 ± 0.34 (treatment: DMSO) and 2.22 ± 0.31 (treatment: MLN4924 1 uM, 8 h).

With ALLFTGIAVLGIVMLKRIHSLYRR [SCAMP3], the protein stability index is 2.2 ± 0.52 (treatment: DMSO) and 1.96 ± 0.25 (treatment: MLN4924 1 uM, 8 h).

As for ALQTLLTLIVVDASGLGLEITTQF [SLC19A2], the protein stability index reads like this: (treatment: DMSO) 3 ± 0.39; (treatment: MLN4924 1 uM, 8 h) 3.31 ± 0.56.

Sequence DEIEFLKKLHEEELRDLQVSVESQ [PRPH] registered a protein stability index (treatment: DMSO) of 3.58 ± 0.7 and a protein stability index (treatment: MLN4924 1 uM, 8 h) of 4.07 ± 0.36.

On to PKDIMTNTHAKSILNSMNSLRKSN [KLHL12], for which the protein stability index was 3.48 ± 0.099 (treatment: DMSO) and 3.73 ± 0.34 (treatment: MLN4924 1 uM, 8 h).

Turning to QPCSIVDVEFLPVYHPSPEESRDP [LPCAT4], the protein stability index (treatment: DMSO) worked out at 4.84 ± 0.28 and the protein stability index (treatment: MLN4924 1 uM, 8 h) is 4.88 ± 0.38.

With EKQIRSFLIEGPLINTIRVVCASY [PLEKHN1], the protein stability index is, setting by setting: (treatment: DMSO) 3.13 ± 0.74; (treatment: MLN4924 1 uM, 8 h) 2.79 ± 0.48.

On to GAFRKGKSFILDFMLRYLYSQKES [ATL3], for which the protein stability index (treatment: DMSO) came to 2.3 ± 0.42 and the protein stability index (treatment: MLN4924 1 uM, 8 h) is 2.22 ± 0.49.

Take TTSTLKAWLNEHRKNPYPTKGEKI [IRX6]: the protein stability index (treatment: DMSO) worked out at 3.13 ± 0.44 and the protein stability index (treatment: MLN4924 1 uM, 8 h) was found to be 3.37 ± 0.16.

For GDVLLDETLKHIKATEPTETVQTW [GOLPH3L], the protein stability index is, setting by setting: (treatment: DMSO) 4.41 ± 0.27; (treatment: MLN4924 1 uM, 8 h) 4.45 ± 0.26.

As for GVITTTPTPPGQYFYPRGGGSGGG [JUNB], the protein stability index reads like this: (treatment: DMSO) 4.14 ± 0.16; (treatment: MLN4924 1 uM, 8 h) 4.26 ± 0.095.

As to EGPSVVKRPAPRTAPRQEKHERTH [SPRY1], the protein stability index by setting is: (treatment: DMSO) 5.17 ± 0.29; (treatment: MLN4924 1 uM, 8 h) 5.13 ± 0.2.

For the sequence TVVEEPVDITPYLDQLDESLRDKV [INTS3], the protein stability index (treatment: DMSO) stood at 5.12 ± 0.16 and the protein stability index (treatment: MLN4924 1 uM, 8 h) was found to be 5.03 ± 0.33.

Regarding YVFYLAVGNYRLKEYEKALKYVRG [FIS1], the protein stability index amounted to 2.79 ± 0.36 (treatment: DMSO) and 2.39 ± 0.58 (treatment: MLN4924 1 uM, 8 h).

For the sequence KNRYANVIAYDHSRVLLSAIEGIP [PTPRD], the protein stability index was 2.27 ± 0.82 (treatment: DMSO) and 2.26 ± 0.4 (treatment: MLN4924 1 uM, 8 h).

Regarding RRQCRPEIRMWQTREKAKFSDGEK [PHTF1], the protein stability index by setting is: (treatment: DMSO) 3.87 ± 0.29; (treatment: MLN4924 1 uM, 8 h) 4.23 ± 0.051.

Take RFLLYTNENPNNFQILLLSDPSTI [PNLIPRP1]: the protein stability index is, setting by setting: (treatment: DMSO) 2.94 ± 1; (treatment: MLN4924 1 uM, 8 h) 2.57 ± 0.61.

With VNMYVSIVFFGLISFDRYYKIVKP [P2RY14], the protein stability index worked out at 3.66 ± 0.41 (treatment: DMSO) and 3.06 ± 0.28 (treatment: MLN4924 1 uM, 8 h).

For the sequence LRCGNQGKGWKATRLFHDSAVTSV [DCAF4], the protein stability index amounted to 2.19 ± 0.21 (treatment: DMSO) and 2.27 ± 0.22 (treatment: MLN4924 1 uM, 8 h).

Turning to GLPRSRDCRVDLGSEVYRMLREPA [PDLIM4], the protein stability index runs as follows: (treatment: DMSO) 3.08 ± 0.15; (treatment: MLN4924 1 uM, 8 h) 3.39 ± 0.2.

Consider TLQPPEFLYSHGVPRTLSPHQYHS [TBX5], for which the protein stability index is, setting by setting: (treatment: DMSO) 2.83 ± 0.14; (treatment: MLN4924 1 uM, 8 h) 3.06 ± 0.12.

Consider LPGNHSTSQEIFRQRFRHLRYQET [ZNF232], for which the protein stability index came out at 3.13 ± 0.17 (treatment: DMSO) and 3.39 ± 0.19 (treatment: MLN4924 1 uM, 8 h).

Take SPKRQLQFYRNLGKSGLRVSCLGL [KCNAB2]: the protein stability index reads like this: (treatment: DMSO) 2.3 ± 0.41; (treatment: MLN4924 1 uM, 8 h) 2.18 ± 0.12.

Regarding LGRTGLYPSYKVREKIETVKYPTY [FUT8], the protein stability index came to 2.42 ± 0.12 (treatment: DMSO) and 2.51 ± 0.14 (treatment: MLN4924 1 uM, 8 h).

The record behind these values is the supplement of paper PMC10567573.
